Key:
human PBMC = experiment: Identification and quantification of released payload in human PBMC (MS); format: in vitro ADME; conditions: 4h, second study
Procedure: In all the following experiments, human PBMC, isolated from 1 healthy donor per study, were treated with exemplary anti-VISTA glucocorticoid conjugates according to the invention to allow identification and quantification of the released payload.
In the present experiments, after incubating PBMC with glucocorticoid (GC) antibody drug conjugates (ADC) for 4h, cells were harvested and assessed for both FKBP5 transcription induction via quantitative real time PCR (qPCR) as well as assessed via mass spectrometry (MS) for released payload identification and quantification.
Isolated PBMCs were resuspended in RPMI 1640 containing 10% human AB serum, 10 mM Hepes, 1× Penicillin/Streptomycin/L-Glutamine (assay media).
PBMCs from 1 donor were washed 2× in PBS, and then resuspended at 1×10^7/mL in media. […]
Remaining cells for each treatment were dived into aliquots representing 50 million cells per aliquot (for metabolite quantification only one aliquot per condition was generated). […]
Media was removed from each cell pellet with the media then set aside at −80C until it could be assessed for the concentration of effluxed payload. […]
Briefly, pre-chilled 70% ACN (extraction buffer) was added to the PBMC pellets for extraction. […] was injected onto the LCMS (Luna C18 (2) column, Thermo Scientific Q Exactive Hybrid Quadrupole Orbitrap) and resulting masses assessed. […]

[1] = tested on: LPS stimulated human PBMCs; experiment: LPS stimulated human PBMC, IL-1β and IL-6 ELISA; format: cell-based
Procedure, shortened: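 Human PBMC (1-2 healthy donors), 150,000 cells/well, treated with test agents at 1,000 nM down to 1 nM or 0.2 nM, in duplicate. LPS at 1 ng/ml added immediately after free payload or 4 h after conjugates; IL-1β and IL-6 in supernatants measured by ELISA.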

## C[C@]12C=CC(=O)C=C1CC[C@@H]1[C@@H]2[C@@H](O)C[C@@]2(C)[C@H]1C[C@H]1O[C@@H](c3ccc(CC4CC5(C4)CC(NC(=O)[C@H](CCC(=O)O)NC(=O)CNC(=O)CBr)C5)cc3)O[C@]12C(=O)CO (stereo partly drawn) [INX V, (S)-4-(2-(2-bromoacetamido)acetamido)-5-((6-(4-((6aR,6bS,7S,8aS,8bS,10R,11aR,12aS,12bS)-7-hydroxy-8b-(2-hydroxyacetyl)-6a,8a-dimethyl-4-oxo-2,4,6a,6b,7,8,8a,8b,11a,12,12a,12b-dodecahydro-1H-naphtho[2′,1′:4,5]indeno[1,2-d][1,3]dioxol-10-yl)benzyl)spiro[3.3]heptan-2-yl)amino)-5-oxopentanoic acid]
Human PBMC
  released payload relative to INX P / INX231P (ng/ng): 235 x
[1]
  potency of conjugated linker payloads over INX J (conclusions): enhanced potency

From US20250108119A1, “NOVEL STEROID PAYLOADS, STEROID LINKERS, ADCs CONTAINING AND USE THEREOF” (IMMUNEXT, INC., priority 2021, published 2025)
